B1: pZmRD21 HSE probe (dsDNA)
DNA 1: TATCGGTTTTTTTAGAAGATATTATGGC
DNA 2: GCCATAATATCTTCTAAAAAAACCGATA
B2: pZmAAO4 HSE probe (dsDNA)
DNA 1: TCTTAATCTCCTAGAAAAATACGGT
DNA 2: ACCGTATTTTTCTAGGAGATTAAGA
B3: pZmZEP1 HSE probe (dsDNA)
DNA 1: GGGTGTTTTTCTGGAATCATGCA
DNA 2: TGCATGATTCCAGAAAAACACCC
B4: pZmCAT1 HSE probe (dsDNA)
DNA 1: GAAGATGAGCTTCTAGGACTGTTAGA
DNA 2: TCTAACAGTCCTAGAAGCTCATCTTC
B5: pZmAOS1 HSE probe (dsDNA)
DNA 1: GTCAAGTCGGGTCTAGAAACTCATAGGCA
DNA 2: TGCCTATGAGTTTCTAGACCCGACTTGAC

Biological target: ZmHsf28 (Zea mays, UniProt K7V9Y4 1-267)
Sequence (K7V9Y4 entry or part of it): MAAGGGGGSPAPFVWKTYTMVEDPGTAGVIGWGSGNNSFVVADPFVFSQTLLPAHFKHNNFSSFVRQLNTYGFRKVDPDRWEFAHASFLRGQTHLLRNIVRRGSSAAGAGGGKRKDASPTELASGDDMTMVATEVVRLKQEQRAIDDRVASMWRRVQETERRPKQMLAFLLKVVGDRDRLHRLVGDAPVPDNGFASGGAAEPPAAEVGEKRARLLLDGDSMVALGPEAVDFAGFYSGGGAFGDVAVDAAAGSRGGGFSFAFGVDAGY
Test: EMSA; Chemiluminescence EMSA kit (Beyotime); buffer, salt, pH and temperature not stated; unlabeled probes as competitors
Settings: protein: recombinant; tags: His (pET28a, Ni-NTA); chain copies: 3; blunt

Binding result, binds:
B1, B2, B3, B4, B5

From article PMC10179534, “Maize Transcription Factor ZmHsf28 Positively Regulates Plant Drought Tolerance”
